Test in all cases: purified protein
What all share (settings): amino acid-dependent exchange of 32P from PPi into ATP

Substrate in data set [1]: O=C(O)[C@@H]1CCCN1
Substrate in data set [2]: CCC[C@H]1CN[C@H](C(=O)O)C1
It is filed as biochemical, Streptomyces caelestis.

Substrate in data set [3]: CCCCC[C@H]1CN[C@H](C(=O)O)C1
It is filed as biochemical, Streptomyces caelestis.

Substrate in data set [4]: CCC[C@H]1CN[C@H](C(=O)O)C1
It counts as biochemical, Streptomyces lincolnensis.

B1: CcbC (Streptomyces caelestis; V306G) (protein)
chain: MNTSTVRNSLSTLLADTAAATPGATALREPGGDTTYRDLAALAGGIQTALAEAGVRPGDRVAVLAPQTAAAVAAVHAVLSAGAAYVPLDPASPPARWAAVCGMSTPRAVVGTRDALAKLTAELPHLATVDLEAPWPEAPLAPVEREAADLGAVLPTSGSTGVPKGVAISREALLAFASWMVDTFEVGADDVIAGFSPLHFDVSVFSLFGAALTGAALAPAPPQLAGFPHELASWADDAGITVWYSVPYPLARLGTLDAVVLEQRLGRLRCVCFAGEVFPHRQLATLMSKMPWVRYTNLYGPTETNGCTFEQVLAPPDEAIAIGSPACGAECWVERDGERVDTEGAVGELIVAGPTVADGYWGNEDETARRFRFGREYRSGRAYATGDQVRILPDGRYAYLGRQDHMVKIRGQRLELEEVESVLGTADGVTGCCVVAVTPPGRPALLCAAVVGDQLDHAALRSHCRGRLPSWAIPQRFLEVPAIPLTSTGKTDRQEVRRRVMAELV
By Km is commonly meant the concentration of substrate that gives half-maximal velocity. On to B1, for which the Michaelis constant (Km) in “purified protein [1]” is reported as 37 ± 2 mM.

B2: CcbC (Streptomyces caelestis; V306G/Y244L) (protein)
chain: MNTSTVRNSLSTLLADTAAATPGATALREPGGDTTYRDLAALAGGIQTALAEAGVRPGDRVAVLAPQTAAAVAAVHAVLSAGAAYVPLDPASPPARWAAVCGMSTPRAVVGTRDALAKLTAELPHLATVDLEAPWPEAPLAPVEREAADLGAVLPTSGSTGVPKGVAISREALLAFASWMVDTFEVGADDVIAGFSPLHFDVSVFSLFGAALTGAALAPAPPQLAGFPHELASWADDAGITVWLSVPYPLARLGTLDAVVLEQRLGRLRCVCFAGEVFPHRQLATLMSKMPWVRYTNLYGPTETNGCTFEQVLAPPDEAIAIGSPACGAECWVERDGERVDTEGAVGELIVAGPTVADGYWGNEDETARRFRFGREYRSGRAYATGDQVRILPDGRYAYLGRQDHMVKIRGQRLELEEVESVLGTADGVTGCCVVAVTPPGRPALLCAAVVGDQLDHAALRSHCRGRLPSWAIPQRFLEVPAIPLTSTGKTDRQEVRRRVMAELV
notes: full-length stand-alone A-domain, N-terminal His6 tag kept, pET28b (pccbC), E. coli BL21(DE3)
Broadly, the kcat is the maximal rate divided by the concentration of active sites. For orientation: kcat/Km means the second-order rate constant that governs catalysis at low substrate concentration. Take B2: in “purified protein [2]”, the Km amounted to 24 ± 3 mM, the catalytic constant (kcat) stood at 0.001 ± 5e-05 s⁻¹ and the kcat/Km came to 0.0433 M⁻¹ s⁻¹.

B3: CcbC (Streptomyces caelestis) (protein)
chain: MNTSTVRNSLSTLLADTAAATPGATALREPGGDTTYRDLAALAGGIQTALAEAGVRPGDRVAVLAPQTAAAVAAVHAVLSAGAAYVPLDPASPPARWAAVCGMSTPRAVVGTRDALAKLTAELPHLATVDLEAPWPEAPLAPVEREAADLGAVLPTSGSTGVPKGVAISREALLAFASWMVDTFEVGADDVIAGFSPLHFDVSVFSLFGAALTGAALAPAPPQLAGFPHELASWADDAGITVWYSVPYPLARLGTLDAVVLEQRLGRLRCVCFAGEVFPHRQLATLMSKMPWVRYTNLYGPTETNVCTFEQVLAPPDEAIAIGSPACGAECWVERDGERVDTEGAVGELIVAGPTVADGYWGNEDETARRFRFGREYRSGRAYATGDQVRILPDGRYAYLGRQDHMVKIRGQRLELEEVESVLGTADGVTGCCVVAVTPPGRPALLCAAVVGDQLDHAALRSHCRGRLPSWAIPQRFLEVPAIPLTSTGKTDRQEVRRRVMAELV
Regarding B3, in the data set “purified protein [1]”, the Michaelis constant (Km) amounted to 0.36 ± 0.03 mM, the kcat is 0.917 s⁻¹ and the specificity constant (kcat/Km) came out at 2550 M⁻¹ s⁻¹.

B4: CcbC (Streptomyces caelestis; F205A/V306G/Y244L) (protein)
chain: MNTSTVRNSLSTLLADTAAATPGATALREPGGDTTYRDLAALAGGIQTALAEAGVRPGDRVAVLAPQTAAAVAAVHAVLSAGAAYVPLDPASPPARWAAVCGMSTPRAVVGTRDALAKLTAELPHLATVDLEAPWPEAPLAPVEREAADLGAVLPTSGSTGVPKGVAISREALLAFASWMVDTFEVGADDVIAGFSPLHFDVSVASLFGAALTGAALAPAPPQLAGFPHELASWADDAGITVWLSVPYPLARLGTLDAVVLEQRLGRLRCVCFAGEVFPHRQLATLMSKMPWVRYTNLYGPTETNGCTFEQVLAPPDEAIAIGSPACGAECWVERDGERVDTEGAVGELIVAGPTVADGYWGNEDETARRFRFGREYRSGRAYATGDQVRILPDGRYAYLGRQDHMVKIRGQRLELEEVESVLGTADGVTGCCVVAVTPPGRPALLCAAVVGDQLDHAALRSHCRGRLPSWAIPQRFLEVPAIPLTSTGKTDRQEVRRRVMAELV
notes: as for B2
In the case of B4, in “purified protein [2]”, the Km worked out at 6.4 ± 1 mM, the kcat worked out at 0.000333 ± 1.67e-05 s⁻¹ and the specificity constant (kcat/Km) came to 0.05 M⁻¹ s⁻¹. Besides, in the data set “purified protein [3]”, the Km turned out to be 2.5 ± 1 mM, the turnover number (kcat) came to 0.000417 ± 5e-05 s⁻¹ and the kcat/Km turned out to be 0.167 M⁻¹ s⁻¹.

B5: LmbC (Streptomyces lincolnensis; I300L) (protein)
chain: MSSSVRLSTLLASAAEARPEAPAVLGETRLPVTYGELAARAGGIQAALAGLGVRAGDRVALLSGRTDADAVAAVHAILAAGAVYVPLDAASPPARWASVSRVCAPTAVVGERALLDRFAAAVPGPRRLALPSDGDELPAGRLDPVRSDGTDVAYLLTTSGSTGVPKCVAHTGAGAVAFLEWMVGAFPVGGDDVFACHAPLHFDVSVASVLGSALGGAALAPVPRELSGFPVELATWIAERAVTVWLSVPYPLARLSGLEERAARERLATLRTVVFAGDVFPHQRLAALMRCAPGARFLNLYGPTETNGCTYEVVDAPPAGPVPIGRPVECAECWVEDDDGRPVDAVGSVGELVVAGPTVAAGYWGVEGHGAERFRTGETCPGGRAYATGDQVRVLPGGRYAFLGRMDNMIKMRGQRFELEEVENAVRLAPGVEDCCVVKVDVRDDHSRLLAVVVGPGAGDPRTLREHCLTRLPSWAVPHRFLTAAALPLGSTGKVDRRALREELVTRGE
notes: full-length stand-alone A-domain, C-terminal His8 tag kept, pET42b (plmbC1), E. coli BL21(DE3)
Turning to B5, in “purified protein [4]”, the Km was determined as 0.24 ± 0.009 mM, the kcat was determined as 0.75 ± 0.00833 s⁻¹ and the catalytic efficiency (kcat/Km) came out at 3080 M⁻¹ s⁻¹.

B6: LmbC (Streptomyces lincolnensis; G308V) (protein)
chain: MSSSVRLSTLLASAAEARPEAPAVLGETRLPVTYGELAARAGGIQAALAGLGVRAGDRVALLSGRTDADAVAAVHAILAAGAVYVPLDAASPPARWASVSRVCAPTAVVGERALLDRFAAAVPGPRRLALPSDGDELPAGRLDPVRSDGTDVAYLLTTSGSTGVPKCVAHTGAGAVAFLEWMVGAFPVGGDDVFACHAPLHFDVSVASVLGSALGGAALAPVPRELSGFPVELATWIAERAVTVWLSVPYPLARLSGLEERAARERLATLRTVVFAGDVFPHQRLAALMRCAPGARFLNIYGPTETNVCTYEVVDAPPAGPVPIGRPVECAECWVEDDDGRPVDAVGSVGELVVAGPTVAAGYWGVEGHGAERFRTGETCPGGRAYATGDQVRVLPGGRYAFLGRMDNMIKMRGQRFELEEVENAVRLAPGVEDCCVVKVDVRDDHSRLLAVVVGPGAGDPRTLREHCLTRLPSWAVPHRFLTAAALPLGSTGKVDRRALREELVTRGE
notes: as for B5
In the case of B6, in “purified protein [4]”, the Km is on record as 5.8 ± 0.6 mM, the kcat was 0.0065 ± 0.000333 s⁻¹ and the kcat/Km was 1.17 M⁻¹ s⁻¹.

B7: LmbC (Streptomyces lincolnensis; L246Y) (protein)
chain: MSSSVRLSTLLASAAEARPEAPAVLGETRLPVTYGELAARAGGIQAALAGLGVRAGDRVALLSGRTDADAVAAVHAILAAGAVYVPLDAASPPARWASVSRVCAPTAVVGERALLDRFAAAVPGPRRLALPSDGDELPAGRLDPVRSDGTDVAYLLTTSGSTGVPKCVAHTGAGAVAFLEWMVGAFPVGGDDVFACHAPLHFDVSVASVLGSALGGAALAPVPRELSGFPVELATWIAERAVTVWYSVPYPLARLSGLEERAARERLATLRTVVFAGDVFPHQRLAALMRCAPGARFLNIYGPTETNGCTYEVVDAPPAGPVPIGRPVECAECWVEDDDGRPVDAVGSVGELVVAGPTVAAGYWGVEGHGAERFRTGETCPGGRAYATGDQVRVLPGGRYAFLGRMDNMIKMRGQRFELEEVENAVRLAPGVEDCCVVKVDVRDDHSRLLAVVVGPGAGDPRTLREHCLTRLPSWAVPHRFLTAAALPLGSTGKVDRRALREELVTRGE
notes: as for B5
B7: in the data set “purified protein [1]”, the Km is recorded as 54 ± 2 mM, the kcat was found to be 0.217 s⁻¹ and the kcat/Km stood at 4 M⁻¹ s⁻¹. Also, in the data set “purified protein [4]”, the Km is listed as 33 ± 6 mM, the turnover number (kcat) was 0.00617 ± 0.0005 s⁻¹ and the catalytic efficiency (kcat/Km) came to 0.183 M⁻¹ s⁻¹.

B8: LmbC (Streptomyces lincolnensis; A207F) (protein)
chain: MSSSVRLSTLLASAAEARPEAPAVLGETRLPVTYGELAARAGGIQAALAGLGVRAGDRVALLSGRTDADAVAAVHAILAAGAVYVPLDAASPPARWASVSRVCAPTAVVGERALLDRFAAAVPGPRRLALPSDGDELPAGRLDPVRSDGTDVAYLLTTSGSTGVPKCVAHTGAGAVAFLEWMVGAFPVGGDDVFACHAPLHFDVSVFSVLGSALGGAALAPVPRELSGFPVELATWIAERAVTVWLSVPYPLARLSGLEERAARERLATLRTVVFAGDVFPHQRLAALMRCAPGARFLNIYGPTETNGCTYEVVDAPPAGPVPIGRPVECAECWVEDDDGRPVDAVGSVGELVVAGPTVAAGYWGVEGHGAERFRTGETCPGGRAYATGDQVRVLPGGRYAFLGRMDNMIKMRGQRFELEEVENAVRLAPGVEDCCVVKVDVRDDHSRLLAVVVGPGAGDPRTLREHCLTRLPSWAVPHRFLTAAALPLGSTGKVDRRALREELVTRGE
notes: as for B5
Turning to B8, in “purified protein [4]”, the Km is 8.6 ± 1 mM, the kcat is 0.0733 ± 0.005 s⁻¹ and the kcat/Km worked out at 8.5 M⁻¹ s⁻¹.

B9: LmbC (Streptomyces lincolnensis; V274C) (protein)
chain: MSSSVRLSTLLASAAEARPEAPAVLGETRLPVTYGELAARAGGIQAALAGLGVRAGDRVALLSGRTDADAVAAVHAILAAGAVYVPLDAASPPARWASVSRVCAPTAVVGERALLDRFAAAVPGPRRLALPSDGDELPAGRLDPVRSDGTDVAYLLTTSGSTGVPKCVAHTGAGAVAFLEWMVGAFPVGGDDVFACHAPLHFDVSVASVLGSALGGAALAPVPRELSGFPVELATWIAERAVTVWLSVPYPLARLSGLEERAARERLATLRTVCFAGDVFPHQRLAALMRCAPGARFLNIYGPTETNGCTYEVVDAPPAGPVPIGRPVECAECWVEDDDGRPVDAVGSVGELVVAGPTVAAGYWGVEGHGAERFRTGETCPGGRAYATGDQVRVLPGGRYAFLGRMDNMIKMRGQRFELEEVENAVRLAPGVEDCCVVKVDVRDDHSRLLAVVVGPGAGDPRTLREHCLTRLPSWAVPHRFLTAAALPLGSTGKVDRRALREELVTRGE
notes: as for B5
For the protein B9, in “purified protein [4]”, the Km stood at 0.39 ± 0.04 mM, the kcat is 0.65 ± 0.0167 s⁻¹ and the kcat/Km turned out to be 1670 M⁻¹ s⁻¹.

For the origin of these results see PMC5730197, “Evolution-guided adaptation of an adenylation domain substrate specificity to an unusual amino acid” (PLoS ONE, 2017).
